Columns and labels:
[1] = target: T1, TGFβ1 (transforming growth factor β1) (UniProt P01137 279-390); assay: BioVeris ECL competition assay with a labeled competitor; legend: ++ = IC50 about 10 - 50 µM
[2] = target: T2, VEGF (vascular endothelial growth factor) (UniProt P15692-4 27-191, limits assumed, biotin label (Example 5)); assay: BioVeris ECL competition assay with a labeled competitor; legend: +++ = IC50 about 2 - 10 µM
[3] = target: T3, FGF-5 (fibroblast growth factor 5) (UniProt P12034 18-268, limits assumed); assay: BioVeris ECL competition assay with a labeled competitor; legend: ++ = IC50 about 10 - 50 µM
T3 sequence (looked up): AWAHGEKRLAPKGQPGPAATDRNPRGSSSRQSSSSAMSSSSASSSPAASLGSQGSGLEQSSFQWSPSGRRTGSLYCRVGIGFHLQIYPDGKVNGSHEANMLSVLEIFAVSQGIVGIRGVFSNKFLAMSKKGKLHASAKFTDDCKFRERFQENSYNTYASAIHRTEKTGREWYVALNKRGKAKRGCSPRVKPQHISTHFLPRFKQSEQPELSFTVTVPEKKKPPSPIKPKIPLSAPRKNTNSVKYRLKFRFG

[4] = target: T1, TGFβ1 (transforming growth factor β1); assay: BioVeris ECL competition assay with a labeled competitor; negative control
[5] = target: T4, TNFα (tumor necrosis factor α) (UniProt P01375 77-233); assay: BioVeris ECL competition assay with a labeled competitor; legend: ++ = IC50 about 10 - 50 µM
T4 sequence (P01375 77-233 limits assumed): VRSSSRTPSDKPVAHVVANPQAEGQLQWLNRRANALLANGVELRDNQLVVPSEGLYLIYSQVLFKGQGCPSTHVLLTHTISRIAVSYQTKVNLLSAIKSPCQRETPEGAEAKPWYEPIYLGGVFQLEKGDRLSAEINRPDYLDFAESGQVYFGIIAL

[6] = target: T4, TNFα (tumor necrosis factor α); assay: BioVeris ECL competition assay with a labeled competitor; legend: + = IC50 about 50 - 250 µM
[7] = target: T2, VEGF (vascular endothelial growth …); assay: BioVeris ECL competition assay with a labeled competitor; legend: ++ = IC50 about 10 - 50 µM
[8] = target: T4, TNFα (tumor necrosis factor α); assay: BioVeris ECL competition assay with a labeled competitor; negative control

T1 sequence (P01137 279-390 limits assumed): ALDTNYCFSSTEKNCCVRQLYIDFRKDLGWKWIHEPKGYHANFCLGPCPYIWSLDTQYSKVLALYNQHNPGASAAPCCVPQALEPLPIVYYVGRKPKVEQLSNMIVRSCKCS
T2 sequence (P15692 other isoform, or with tags, fused parts or gaps limits assumed): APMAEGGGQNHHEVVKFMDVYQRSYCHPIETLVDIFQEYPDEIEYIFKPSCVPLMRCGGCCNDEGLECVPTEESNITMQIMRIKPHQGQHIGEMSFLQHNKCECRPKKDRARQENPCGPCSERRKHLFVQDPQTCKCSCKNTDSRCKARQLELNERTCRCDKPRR

B1: PEN3-Q-BBIt-TGF (BBIt-A13I-L29P-F50T-V52A with the TGFβ1 binding peptide PEN3 PENINVLP) (designed binder)
chain: DPDDESSKPCCDQCICTKSNPPQCRCSDMRPNSCHSACKSCACPENINVLPCTCADITDFCYEPCKPSE
notes: also called PEN3-Q-BBIt-TGFβ1; BBIt-PEN3-Q-A13I-L29P-F50T-V52A
[1]
  IC50: 10 to 50 µM

B2: VegKD-Q (BBIt-A13I-S25K-L29P-V52K with the VEGF-binding peptide VegKD KYDLYWW) (designed binder)
chain: DPDDESSKPCCDQCICTKSNPPQCRCKDMRPNSCHSACKSCICKYDLYWWCFCKDITDFCYEPCKPSE
[2]
  IC50: 2 to 10 µM

B3: MM007-Q-BBIt-FGF-5 (BBIt-A13I-L29P-F50T-V52A with the FGF-5 binding peptide MM007 RTQPYPL) (designed binder)
chain: DPDDESSKPCCDQCICTKSNPPQCRCSDMRPNSCHSACKSCACRTQPYPLCTCADITDFCYEPCKPSE
notes: also called BBIt-MM007-Q-A13I-L29P-F50T-V52A
[3]
  IC50: 10 to 50 µM

B4: FGFps2-Q-BBIt-FGF-5 (BBIt-A13I-L29P-F50T-V52A with the FGF-5 binding peptide FGFps2 TWIDSTP) (designed binder)
chain: DPDDESSKPCCDQCICTKSNPPQCRCSDMRPNSCHSACKSCACTWIDSTPCTCADITDFCYEPCKPSE
notes: also called BBIt-FGFps2-Q-A13I-L29P-F50T-V52A
[4]
  IC50: > 250 µM
[3]
  IC50: 10 to 50 µM

B5: MM021W-Q-BBIt-TGF (BBIt-A13I-L29P-F50T-V52A with the TGFβ1 binding peptide MM021W KHNVDWL) (designed binder)
chain: DPDDESSKPCCDQCICTKSNPPQCRCSDMRPNSCHSACKSCACKHNVDWLCTCADITDFCYEPCKPSE
notes: also called MM021W-Q-BBIt-TGFβ1; BBIt-MM021W-Q-A13I-L29P-F50T-V52A
[1]
  IC50: 10 to 50 µM

B6: BBIt-TNF-T1 (BBIt-TNFα-T1-A13I-S25R-M27A-L29P-S31A-F50K-V52T, peptide RYWQDIP) (designed binder)
chain: DPDDESSKPCCDQCICTKSNPPQCRCRDARPNACHSACKSCACRYWQDIPCKCTDITDFCYEPCKPSE
[5]
  IC50: 10 to 50 µM

B7: BBIt-TNF-T2 (BBIt-TNFα-T2-A13I-S25R-M27A-L29P-S31A-F50K-V52T, peptide APEPILA) (designed binder)
chain: DPDDESSKPCCDQCICTKSNPPQCRCRDARPNACHSACKSCACAPEPILACKCTDITDFCYEPCKPSE
[6]
  IC50: 50 to 250 µM

B8: BBIt-AV-V5 (BBIt-VEGF-V5-A13I-S25R-M27A-L29P-S31A-F50K-V52T, peptide KPSSASS) (designed binder)
chain: DPDDESSKPCCDQCICTKSNPPQCRCRDARPNACHSACKSCACKPSSASSCKCTDITDFCYEPCKPSE
[7]
  IC50: 10 to 50 µM

B9: BBIt-TNF-T3 (BBIt-TNFα-T3-A13I-S25R-M27A-L29P-S31A-F50K-V52T, peptide DMIMVSI) (designed binder)
chain: DPDDESSKPCCDQCICTKSNPPQCRCRDARPNACHSACKSCACDMIMVSICKCTDITDFCYEPCKPSE
notes: the listing entry must be checked
[6]
  IC50: 50 to 250 µM

B10: BBIt-AV-V4 (BBIt-VEGF-V4-A13I-S25R-M27A-L29P-S31A-F50K-V52T, peptide KHSAKAE) (designed binder)
chain: DPDDESSKPCCDQCICTKSNPPQCRCRDARPNACHSACKSCACKHSAKAECKCTDITDFCYEPCKPSE
[2]
  IC50: 2 to 10 µM

B11: BBIt-AV-V6 (BBIt-VEGF-V6-A13I-S25R-M27A-L29P-S31A-F50K-V52T, peptide PVTKRVH) (designed binder)
chain: DPDDESSKPCCDQCICTKSNPPQCRCRDARPNACHSACKSCACPVTKRVHCKCTDITDFCYEPCKPSE
[2]
  IC50: 2 to 10 µM

B12: BBIt-AV-V3 (BBIt-VEGF-V3-A13I-S25R-M27A-L29P-S31A-F50K-V52T, peptide RPTGHSL) (designed binder)
chain: DPDDESSKPCCDQCICTKSNPPQCRCRDARPNACHSACKSCACRPTGHSLCKCTDITDFCYEPCKPSE
[7]
  IC50: 10 to 50 µM

B13: BBIt-AV-V1 (BBIt-VEGF-V1-A13I-S25R-M27A-L29P-S31A-F50K-V52T, peptide SKHSQIT) (designed binder)
chain: DPDDESSKPCCDQCICTKSNPPQCRCRDARPNACHSACKSCACSKHSQITCKCTDITDFCYEPCKPSE
[8]
  IC50: > 250 µM
[7]
  IC50: 10 to 50 µM

B14: BBIt-AV-V2 (BBIt-VEGF-V2-A13I-S25R-M27A-L29P-S31A-F50K-V52T, peptide KTNPSGS) (designed binder)
chain: DPDDESSKPCCDQCICTKSNPPQCRCRDARPNACHSACKSCACKTNPSGSCKCTDITDFCYEPCKPSE
[2]
  IC50: 2 to 10 µM

From patent EP2344531B1 (Danisco US Inc., dated 2014)
